From patent publication US20150183835A1

Columns and labels:
[1] = biological target: disulfide-stabilized SF162 L1-SS-L2 gp120 (V59C & S109C) (HIV-1 strain SF162) (UniProt P19550); assay: SPR BIAcore 3000, b12 immobilized; Kd compared with wild-type gp120
[2] = biological target: disulfide-stabilized SF162 L1-SS-L2 gp120 (V59C & S109C) (HIV-1 strain SF162) (UniProt P19550); assay: SPR BIAcore 3000, b12 amine-coupled on CM5, gp120 L1-SS-L2 as analyte, 25 C, 1:1 Langmuir fit
[3] = biological target: HIV-1 SF162 gp120 (wild type, unmodified) (HIV-1 strain SF162) (UniProt P19550); assay: SPR BIAcore 3000, b12 amine-coupled on CM5, gp120 as analyte, 25 C, 1:1 Langmuir fit

In the case of mAb b12 (antibody), the fold difference in Kd against wild-type gp120 [1] is reported as less than 7 fold, the Kd [2] is reported as 304 nM and the koff [2] is reported as 0.00885 s⁻¹. It also gave a kon [2] of 29100 M⁻¹ s⁻¹, a Kd [3] of 44.8 nM and a koff [3] of 0.00712 s⁻¹. The kon [3] was 165000 M⁻¹ s⁻¹.
